From patent publication US20180154038A1 come the findings set out here.

The target in this experiment is human fibrinogen (human) (UniProt P02671). The experiment in a line: cell-based or functional assay.

Where no end group is shown, it is not given here.

Sequence of human fibrinogen (human) (P02671 20-629 limits assumed, chain 1 of 3): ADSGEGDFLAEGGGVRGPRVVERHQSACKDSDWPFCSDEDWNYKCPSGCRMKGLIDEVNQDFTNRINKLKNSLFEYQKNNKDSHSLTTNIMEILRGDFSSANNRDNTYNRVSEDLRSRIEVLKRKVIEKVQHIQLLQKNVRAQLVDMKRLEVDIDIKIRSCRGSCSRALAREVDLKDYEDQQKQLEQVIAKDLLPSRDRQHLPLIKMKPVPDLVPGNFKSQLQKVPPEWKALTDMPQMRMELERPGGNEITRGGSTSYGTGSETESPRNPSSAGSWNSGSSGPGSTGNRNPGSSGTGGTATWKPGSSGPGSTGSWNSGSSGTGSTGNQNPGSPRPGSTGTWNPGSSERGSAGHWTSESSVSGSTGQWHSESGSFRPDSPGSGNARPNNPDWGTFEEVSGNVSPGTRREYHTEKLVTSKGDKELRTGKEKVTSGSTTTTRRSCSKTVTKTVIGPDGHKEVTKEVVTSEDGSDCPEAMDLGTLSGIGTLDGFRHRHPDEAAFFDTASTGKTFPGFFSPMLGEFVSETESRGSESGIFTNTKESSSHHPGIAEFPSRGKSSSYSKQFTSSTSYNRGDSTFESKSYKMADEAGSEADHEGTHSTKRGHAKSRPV
Sequence of human fibrinogen (human) (P02675 31-491 limits assumed, chain 2 of 3, further chain): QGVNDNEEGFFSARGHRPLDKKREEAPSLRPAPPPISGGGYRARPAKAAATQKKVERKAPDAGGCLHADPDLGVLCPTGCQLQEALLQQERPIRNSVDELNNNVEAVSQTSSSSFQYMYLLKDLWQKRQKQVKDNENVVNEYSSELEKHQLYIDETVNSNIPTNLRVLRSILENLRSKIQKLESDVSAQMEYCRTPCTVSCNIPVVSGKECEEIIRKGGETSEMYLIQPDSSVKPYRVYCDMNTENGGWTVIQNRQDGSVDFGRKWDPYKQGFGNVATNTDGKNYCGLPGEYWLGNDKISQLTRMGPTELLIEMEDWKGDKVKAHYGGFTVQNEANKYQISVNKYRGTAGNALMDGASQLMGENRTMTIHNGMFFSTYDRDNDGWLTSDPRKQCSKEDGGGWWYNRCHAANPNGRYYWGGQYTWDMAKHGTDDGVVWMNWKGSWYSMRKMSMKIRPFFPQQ
Sequence of human fibrinogen (human) (P02679 other isoform, or with tags, fused parts or gaps limits assumed, chain 3 of 3, further chain): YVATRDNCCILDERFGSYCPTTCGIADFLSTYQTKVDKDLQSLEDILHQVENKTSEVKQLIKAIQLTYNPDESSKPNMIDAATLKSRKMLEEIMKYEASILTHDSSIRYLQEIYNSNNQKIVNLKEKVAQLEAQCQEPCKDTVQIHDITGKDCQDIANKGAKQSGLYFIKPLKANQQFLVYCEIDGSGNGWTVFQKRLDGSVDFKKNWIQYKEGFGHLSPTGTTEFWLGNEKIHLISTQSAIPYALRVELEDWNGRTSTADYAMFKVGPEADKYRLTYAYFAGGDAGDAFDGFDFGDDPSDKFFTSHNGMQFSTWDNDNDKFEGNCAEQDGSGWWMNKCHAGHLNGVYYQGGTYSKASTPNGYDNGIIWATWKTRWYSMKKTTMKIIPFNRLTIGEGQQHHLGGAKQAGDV

B1: Peptide Dendrimer No. 12 (peptide, from a related filing, part only)
peptide: GPRPG
chain: KKKKK
modifications: not fully specified; also: five-arm peptide dendrimer, arms attached by C-terminus to branched core
In turn, B1 returned a Clotting activity (seconds) in human fibrinogen @ c = 3 mg/ml; HXP12 extracted from HA paste, 0.06 mg/ml; after sterilization, accelerated aging @ 40 C, 2 weeks of 3.6 s; a Clotting activity (seconds) in human fibrinogen @ c = 3 mg/ml; HXP12 extracted from HA paste, 0.06 mg/ml; after sterilization, accelerated aging @ 40 C, 4 weeks of 5.4 s; a Clotting activity (seconds) in human fibrinogen @ c = 3 mg/ml; HXP12 extracted from HA paste, 0.06 mg/ml; autoclaved @ 121 C of 3.3 s; a Clotting activity (seconds) in human fibrinogen @ c = 3 mg/ml; HXP12 extracted from HA paste, 0.06 mg/ml; non autoclaved of 1 s. The Clotting activity (seconds) in human fibrinogen; HXP12 0.05 mg/ml in saline; after sterilization, storage @ 40 C, 4 wks was 0.9 s; the Clotting activity (seconds) in human fibrinogen; HXP12 0.05 mg/ml in saline; after sterilization, storage @ 40 C, 7 wks is 1.2 s; the Clotting activity (seconds) in human fibrinogen; HXP12 0.05 mg/ml in saline; after sterilization, storage @ 40 C, 13 wks is 1.1 s; the Clotting activity (seconds) in human fibrinogen; HXP12 0.05 mg/ml in saline; after sterilization, storage @ 40 C, 27 wks worked out at 1.1 s. The molecule also yielded a Clotting activity (seconds) in human fibrinogen; HXP12 0.05 mg/ml in saline; autoclaved @ 121 C of 1 s; a Clotting activity (seconds) in human fibrinogen; HXP12 0.05 mg/ml in saline; non autoclaved of 1.1 s; a Clotting activity (seconds) in human plasma; HXP12 extracted from HA paste, 0.1 mg/ml; after sterilization, accelerated aging @ 80 C, 4 hours of 2.8 s; a Clotting activity (seconds) in human plasma; HXP12 extracted from HA paste, 0.1 mg/ml; after sterilization, accelerated aging @ 80 C, 16 hours of 4.8 s. The molecule also had a Clotting activity (seconds) in human plasma; HXP12 extracted from HA paste, 0.1 mg/ml; autoclaved @ 121 C of 2.6 s; a Clotting activity (seconds) in human plasma; HXP12 extracted from HA paste, 0.1 mg/ml; non autoclaved of 2 s; a clotting time in human plasma, dendrimer 0.25 mg/ml, 37 C of less than 1 s.
